Measurements taken from US20240076396A1 (Regeneron, published 2024).

Experiments:
[1] = biological target: T1, human GITR expressed on the cell surface (human, UniProt Q9Y5U5 26-241); experiment: cell-based or functional assay
T1 sequence: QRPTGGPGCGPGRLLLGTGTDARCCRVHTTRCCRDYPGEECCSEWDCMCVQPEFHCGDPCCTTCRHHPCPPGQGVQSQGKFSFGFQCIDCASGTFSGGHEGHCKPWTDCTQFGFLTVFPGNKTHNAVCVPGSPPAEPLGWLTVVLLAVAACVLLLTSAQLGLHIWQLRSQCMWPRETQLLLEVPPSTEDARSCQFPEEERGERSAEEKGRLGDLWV

[2] = biological target: T2, cynomolgus monkey GITR expressed on the cell surface (Macaca fascicularis (cynomolgus monkey)); experiment: cell-based or functional assay
[3] = biological target: T3, Jurkat/hCD20 cells (human CD20, no GITR; negative control cell line) (human, UniProt P11836 1-297); experiment: cell-based or functional assay
T3 sequence (looked up): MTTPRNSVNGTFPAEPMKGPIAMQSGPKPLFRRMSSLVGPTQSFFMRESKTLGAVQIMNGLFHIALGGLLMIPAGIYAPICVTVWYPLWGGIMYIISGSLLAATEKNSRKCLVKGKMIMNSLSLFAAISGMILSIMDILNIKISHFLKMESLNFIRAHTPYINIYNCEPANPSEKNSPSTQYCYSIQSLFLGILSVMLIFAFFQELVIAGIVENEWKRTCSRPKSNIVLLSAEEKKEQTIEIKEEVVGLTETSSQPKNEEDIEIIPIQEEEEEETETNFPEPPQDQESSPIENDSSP

[4] = biological target: T1, human GITR expressed on the cell surface; experiment: flow cytometry on Jurkat/hCD20/hGITR cells; max MFI over secondary antibody alone
Procedure: (§1) Flow cytometry was used to evaluate mAb1 binding to Jurkat/hCD20/hGITR cells and Jurkat/hCD20/MfGITR cells. Jurkat/hCD20 cells were used as a negative control cell line for GITR binding. Cells were added to a 96-well V-bottom plate (2×10⁵ to 4×10⁵ cells/well) and incubated in Fc block solution, followed by successive incubation on ice with primary antibody (mAb1 or IgG1 isotype control) at final concentrations ranging from 18 pM to 300 nM and a secondary antibody (AF647-conjugated anti-human IgG) at 5 μg/mL. Cells were then stained with LIVE/DEAD Fixable Green Dead Cell Stain according to the manufacturer's instructions. […] Data were analyzed with Flow.lo software. For EC₅₀ (effective concentration at 50% activity) determinations, measured geometric MFI values were analyzed using a 4-parameter logistic equation over a 9-point response curve with GraphPad Prism. The fold binding was determined by taking the ratio of the highest MFI on the curve to the MFI of the wells containing secondary antibody only.
(§2) ^a The maximum MFI was the highest mean MFI value within the concentration range tested (18 pM to 300 nM). ^b Fold binding was calculated as the maximum MFI above background (secondary antibody alone). h, Human; Mf, Macaca fascicularis (cynomolgus monkey); ND, Not determined because concentration-dependent binding was not observed

[5] = biological target: T3, Jurkat/hCD20 cells (human CD20, no …); experiment: flow cytometry on Jurkat/hCD20 control cells; max MFI over secondary antibody alone
Procedure: as §1, §2

[6] = biological target: T2, cynomolgus monkey GITR expressed on the …; experiment: flow cytometry, AF647-conjugated antibody on CD4+ CD69+ cynomolgus monkey primary T cells, donor 58947
Procedure: FIG. 7 depicts antibody binding to CD69+ cynomolgus monkey primary T-cells. Primary cynomolgus monkey T-cells from 4 separate donors were stimulated in vitro with anti-CD2/anti-CD3/anti-CD28-coated beads. Cell-surface binding of AF647-conjugated mAb1 and AF647-conjugated IgG1 isotype control at a range of concentrations (8 pM to 200 nM) on CD69⁺ and CD69⁻ cynomolgus monkey primary CD4⁺ and CD8⁺ T-cells was detected using flow cytometry. Fluorescence intensity was plotted as geometric MFI. Mf, Macaca fascicularis (cynomolgus monkey)
Peripheral blood mononuclear cells (PBMC) were isolated from human or cynomolgus monkey whole blood (4 donors each) using density centrifugation through Ficoll-Paque PLUS in SepMate tubes (for human PBMC) or 50 mL conical tubes (for cynomolgus monkey PBMC) and transferred to a fresh conical tube for incubation in Red Blood Cell (RBC) Lysis Buffer. […] After 4 days, activation beads were removed from the culture using a MACSiMAG Separator, and cells were collected and counted.
Flow cytometry was used to evaluate mAb1 binding to human or cynomolgus monkey T-cells in activated PBMC. […] Data were analyzed with Flowio software. For EC₅₀ determinations, measured geometric MFI values were analyzed using a 4-parameter logistic equation over a 12-point response curve with GraphPad Prism.

B1: mAb1 (antibody, human IgG1, kappa, V domains shown)
VH: QVQLQESGPGLVKPSETLSLTCIVSGGSISGYFWNWIRQPPGKGLEWIGYIYYSGTTIYNPSLKSRFTISLDTSKNQFSLKLTSVTAADTAVYYCARESYDPSPRYFDHWGQGTLVTVSS
VL: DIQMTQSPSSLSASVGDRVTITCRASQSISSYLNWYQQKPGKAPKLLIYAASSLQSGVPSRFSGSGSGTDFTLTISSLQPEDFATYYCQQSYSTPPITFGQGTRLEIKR
notes: Human IgG1; N101D variant of CompAb1; also called N101D Variant; N101D
With B1 the “EC50, NFAT-luciferase in Jurkat/NFAT-Luc/hFcγR3a effector cells with Jurkat/hCD20/hGITR target cells” value [1] was 0.032 nM, the “Fold Change in Activity, NFAT-luciferase in Jurkat/NFAT-Luc/hFcγR3a effector cells with Jurkat/hCD20/hGITR target cells” value [1] was 38 fold and the “EC50, NFAT-luciferase in Jurkat/NFAT-Luc/MfFcγR3a effector cells with Jurkat/hCD20/MfGITR target cells” value [2] was 0.016 nM. For the same binder, the “Fold Change in Activity, NFAT-luciferase in Jurkat/NFAT-Luc/MfFcγR3a effector cells with Jurkat/hCD20/MfGITR target cells” value [2] was 23.9 fold, the “Fold Change in Activity, NFAT-luciferase in Jurkat/NFAT-Luc/MfFcγR3a effector cells with Jurkat/hCD20 target cells” value [3] was 1.02 fold and the “Fold Change in Activity, NFAT-luciferase in Jurkat/NFAT-Luc/hFcγR3a effector cells with Jurkat/hCD20 target cells” value [3] was 1.01 fold. For the same binder, the “Fold Binding” value [4] was 290 fold, the “Fold Binding” value [5] was 1.06 fold and the “EC50 (read off the curve)” value [6] was about 3 nM.
